The values that follow come from paper PMC5577222.

Assay [1] has as its target microtubules polymerized from porcine brain tubulin (taxol-stabilized) (porcine) (UniProt P02550). The experiment in a line: single-molecule TIRF microscopy; rhodamine-labelled taxol-stabilized microtubules held on the surface by anti-beta-tubulin; eGFP-DRG1 at 0.08, 0.4, 4, 40 nM in BRB80 assay buffer with 1 mM GTP, 25 °C; residence times from kymographs, not corrected for bleaching.

The target is the same in assay [2]. In words: co-sedimentation; 1 µM recombinant DRG1 with different concentrations of taxol-stabilized microtubules; Coomassie quantified with ImageJ, binding curve fitted.

B1: eGFP-DRG1 (Xenopus laevis DRG1 with N-terminal eGFP) (natural protein)
chain: MSGTLARIAEIEAEMARTQKNKATAYHLGLLKARLAKLRRELITPKGGGGGGPGEGFDVAKTGDARIGFVGFPSVGKSTLLSNLAGVYSEVAAYEFTTLTTVPGVVRYKGAKIQLLDLPGIIEGAKDGKGRGRQVIAVARTCNLILIVLDVLKPLGHKKIIENELEGFGIRLNKQPPNIGFKKKDKGGINLTATCAQSELDNDTVKSILAEYKIHNADITLRSDATADDLIDVVEGNRVYIPCIYVLNKIDQISIEELDIIYKVPHCVPISAHHRWNFDDLLEKIWDYLQLVRIYTKPKGQLPDYTSPVVLPCSHTAAEDFCTKIHKNLIKEFKYALVWGSSVKHNPQKVGKDHVLEDEDVIQIVKK
As for B1, in assay [1], the residence time, diffusive population, 4 nM eGFP-DRG1 is 2.2 s; the residence time, diffusive population, 40 nM eGFP-DRG1 was 2.6 s; the residence time, immobile fraction, 0.08 nM eGFP-DRG1 stood at 12 s; the residence time, immobile fraction, 0.4 nM eGFP-DRG1 was determined as 12.4 s. Moreover, in assay [1], the residence time, immobile fraction, 4 nM eGFP-DRG1 came out at 11.1 s and the residence time, immobile fraction, 40 nM eGFP-DRG1 was determined as 5.4 s.

B2: recombinant Xenopus laevis Developmentally regulated GTP binding protein 1 (DRG1), full length (natural protein)
chain: B1 chain
Regarding B2, in assay [2], the Kd – broadly, the constant that tells how readily two partners part at equilibrium – stood at 470 nM.
